Experimental data from PMC9668993, “CBP-HSF2 structural and functional interplay in Rubinstein-Taybi neurodevelopmental disorder” (Nature Communications, 2022).

Target: T1, CBP-Full-HAT, full-catalytic domain of murine CBP (1096-1700), 6 His-tagged (murine, UniProt P45481 1096-1700)
T1 construct: also called CBP core catalytic domain; source: recombinant, purified
T1 sequence (looked up): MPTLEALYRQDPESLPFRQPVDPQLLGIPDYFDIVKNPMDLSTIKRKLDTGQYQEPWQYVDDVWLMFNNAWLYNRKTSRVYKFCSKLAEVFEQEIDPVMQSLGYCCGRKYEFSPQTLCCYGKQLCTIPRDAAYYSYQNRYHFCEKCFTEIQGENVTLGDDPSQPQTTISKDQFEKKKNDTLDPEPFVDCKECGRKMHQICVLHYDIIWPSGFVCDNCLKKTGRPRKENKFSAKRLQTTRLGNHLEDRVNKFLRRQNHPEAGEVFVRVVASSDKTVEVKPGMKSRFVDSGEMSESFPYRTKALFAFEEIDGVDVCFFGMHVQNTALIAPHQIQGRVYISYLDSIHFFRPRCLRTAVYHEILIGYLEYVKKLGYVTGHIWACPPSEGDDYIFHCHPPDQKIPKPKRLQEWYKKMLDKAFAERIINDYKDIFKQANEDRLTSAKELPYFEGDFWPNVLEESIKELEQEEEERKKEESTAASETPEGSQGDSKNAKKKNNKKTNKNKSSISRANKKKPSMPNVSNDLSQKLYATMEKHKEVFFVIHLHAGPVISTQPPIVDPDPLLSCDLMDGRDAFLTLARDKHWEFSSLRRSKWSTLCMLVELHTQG
Assay: BLI; Octet Red; biotinylated recombinant HSF2 immobilised at 100 nM on streptavidin biosensors in PBS; analytes diluted in PBS at 100 nM, association 600 s; Kd with a 1:1 stoichiometry model, global fit with Rmax unlinked by sensor
Settings: both partners purified

- Kd: 1 nM
B1: biotinylated recombinant full-length HSF2 (recHSF2) (natural protein, UniProt Q03933 1-536, looked up)
chain: MKQSSNVPAFLSKLWTLVEETHTNEFITWSQNGQSFLVLDEQRFAKEILPKYFKHNNMASFVRQLNMYGFRKVVHIDSGIVKQERDGPVEFQHPYFKQGQDDLLENIKRKVSSSKPEENKIRQEDLTKIISSAQKVQIKQETIESRLSELKSENESLWKEVSELRAKHAQQQQVIRKIVQFIVTLVQNNQLVSLKRKRPLLLNTNGAQKKNLFQHIVKEPTDNHHHKVPHSRTEGLKPRERISDDIIIYDVTDDNADEENIPVIPETNEDVISDPSNCSQYPDIVIVEDDNEDEYAPVIQSGEQNEPARESLSSGSDGSSPLMSSAVQLNGSSSLTSEDPVTMMDSILNDNINLLGKVELLDYLDSIDCSLEDFQAMLSGRQFSIDPDLLVDLFTSSVQMNPTDYINNTKSENKGLETTKNNVVQPVSEEGRKSKSKPDKQLIQYTAFPLLAFLDGNPASSVEQASTTASSEVLSSVDKPIEVDELLDSSLDPEPTQSKLVRLEPLTEAEASEATLFYLCELAPAPLDSDMPLLDS
modifications: biotinylated with EZ-Link NHS-PEG4-Biotin at a molar ratio biotin/protein (3:1)
notes: heat-shock factor 2, recombinant full-length protein, catalogue TP310751; also called recombinant HSF2; source: bought: Origen (TP310751)
